Measured values reported in US20100009439A1.

Experiments:
Conditions in all cases: remark: other sources report otherwise
[1] = biological target: T1, purified full-length human IGF-I receptor (human), P08069; test: ELISA, hybridoma supernatant on coated purified human IGF-I receptor
[2] = biological target: T1, purified full-length human IGF-I …; test: ELISA titration on biotinylated human IGF-I receptor captured on streptavidin; non-linear regression for one-site binding
[3] = biological target: T1, purified full-length human IGF-I …; test: ELISA titration on human IGF-I receptor, similar to that of the whole antibody

| absorbance units (405 nm) (absorbance units) [1] | Kd [2] [nM] | Kd [3] [nM] | Binder |
| --- | --- | --- | --- |
| 1.2 | 0.1 | – | murine EM164 antibody (antibody, V domains shown, here or on the partner: biotinylated with PEO-maleimide-biotin in the captured format) VH: QVQLQQSGAELVKPGASVKLSCKASGYTFTSYWMHWVKQRPGQGLEWIGEINPSNGRTNYNEKFKRKATLTVDKSSSTAYMQLSSLTSEDSAVYYFARGRPDYYGSSKWYFDVWGAGTTVTVS VL: DVLMTQTPLSLPVSLGDQASISCRSSQSIVHSNVNTYLEWYLQKPGQSPKLLIYKVSNRFSGVPDRFSGSGSGTDFTLRISRVEAEDLGIYYCFQGSHVPPTFGGGTKLEIKR |
| – | – | 0.3 | Fab fragment of EM164 antibody (Fab, V domains shown, here or on the partner: biotinylated with PEO-maleimide-biotin in the captured format) VH: QVQLQQSGAELVKPGASVKLSCKASGYTFTSYWMHWVKQRPGQGLEWIGEINPSNGRTNYNEKFKRKATLTVDKSSSTAYMQLSSLTSEDSAVYYFARGRPDYYGSSKWYFDVWGAGTTVTVS VL: DVLMTQTPLSLPVSLGDQASISCRSSQSIVHSNVNTYLEWYLQKPGQSPKLLIYKVSNRFSGVPDRFSGSGSGTDFTLRISRVEAEDLGIYYCFQGSHVPPTFGGGTKLEIKR |
